The test concerns the target 40S-containing ribosomal complexes. As to the kind of experiment: co-sedimentation.

B1: DExH-box protein DHX29 (enzyme)
chain: MGGKNKKHKAPGAAAVRAAVSASRAKSAEAAAAGEAQSKKPVARPPPAAAAGAREPRVKQGPKIYSFNSANDSGGPANVDKSILKVVINNKLEQRIIGVINEHKKQNNDKGMISGRLTAKKLQDLYMALQAFSFKTKDIEDAMTNTLLHGGDLHSALDWLCLNLSDDALPEGFSQEFEEQQAKSRPKFQAPQIQATISPPLQPKIKKQEEDPKIKPKKEDKNMEVNMKEWILQYAERQKEEEKSESSKSLEEEEKFDPNERYLHLAAKFLDAKEQAAAFKLEKNKQGQKEAQEKIRKFQREMETLEDHPVFNPAIKISYQQNERKKPPVATEGESSLNFNLFEKSAAPTEEEKDKKKEPHDVRNFDYTARSWTGKSPKQFLIDWVRKNLPKSPNPSFEKVPVGRYWKCRVRVIKSEDDVLVVCPAILTEDGMQAQHLGATLALYRLVKGQSVHQLLPPTYRDVWLEWSDAEKKKEELNKMETNKPRDLFIAKLLNKLKQQQQLQQQHSENKKENSEDPEESWENLVSEEDFSALSLESAVAEDLEPVRNLFRKLQSSPKYQRLLKERQQLPVFKHRESIVETLKRHRVVVVAGETGSGKSTQVPHFLLEDLLLNEWGTSKCNIICTQPRRISAVSLATRVCDELGCENGPGGRNSLCGYQIRMESRASESTRLLYCTTGVLLRKLQEDGLLSNVSHVIVDEVHERSVQSDFLLVILKEILQKRSDLHLILMSATVDSEKFSTYFTHCPILRISGRSYPVEVFHLEDIIEETGFVLEKDSEYCQKFLEEEEEITINVTSKAGGIKKYQEYIPVQTGTTADLNPLYQKYSNRTQHAILYMNPHKINLDLILELLVYLDKSPQFRNIEGAVLIFLPGLAHIQQLYDLLSNDRRFYSERYKVIALHSILSTQDQAAAFTLPPPGVRKIVLATNIAETGITIPDVVFVIDTGRTKENKYHESSQMSSLVETFVSKASALQRQGRAGRVRDGFCFRMYTRERFEGFMDYSVPEILRVPLEELCLHIMKCNLGSPEDFLSKALDPPQLQVISNAMNLLRKIGACELNEPKLTPLGQHLAALPVNVKIGKMLIFGAIFGCLDPVATLAAVMTEKSPFTTPIGRKEEADLAKSALAIADSDHLTIYNAYLGWKKAQQEGGYRSELAYCRRNFLNRTALLTLEDVKQELMKLVKAAGFSSTTSNNWEGNRASQTLSFQEIALLKAVLAAGLYDNVGKIIYTKSVDVTEKLACIVETAQGKAQVHPSSVNRDLQTYGWLLYQEKIRYARVYLRETTLITPFPVLLFGGDIEVQHRERLLSIDGWIYFQAPVKIAVIFKQLRVLIDSVLRKKLENPKMSLENDKILQIITELIKTENN
Molecule B1 yielded a percent of 40S-ribosomal complexes associated with DHX29 of 10%.

Source of the values: article PMC2948571.
